Patent US20030022353

B1: Mch2α (protein)
chain: MSSASGLRRGHPAGGEENMTETDAFYKREMFDPAEKYKMDHRRRGIALIFNHERFFWHLTLPERRRTCADRDNLTRRFSDLGFEVKCFNDLKAEELLLKIHEVSTVSHADADCFVCVFLSHGEGNHIYAYDAKIEIQTLTGLFKGDKCHSLVGKPKIFIIQACRGNQHDVPVIPLDVVDNQTEKLDTNITEVDAASVYTLPAGADFLMCYSVAEGYYSHRETVNGSWYIQDLCEMLGKYGSSLEFTELLTLVNRKVSQRRVDFCKDPSAIGKKQVPCFASMLTKKLHFFPKSN
B2: CPP32 (protein)
chain: MENTENSVDSKSIKNLEPKIIHGSESMDSGISLDNSYKMDYPEMGLCIIINNKNFHKSTGMTSRSGTDVDAANLRETFRNLKYEVRNKNDLTREEIVELMRDVSKEDHSKRSSFVCVLLSHGEEGIIFGTNGPVDLKKITNFFRGDRCRSLTGKPKLFIIQACRGTELDCGIETDSGVDDDMACHKIPVEADFLYAYSTAPGYYSWRNSKDGSWFIQSLCAMLKQYADKLEFMHILTRVNRKVATEFESFSFDATFHAKKQIPCIVSMLTKELYFYH
B3: Mch2β (protein)
chain: MSSASGLRRGHPAVSTVSHADADCFVCVFLSHGEGNHIYAYDAKIEIQTLTGLFKGDKCHSLVGKPKIFIIQACRGNQHDVPVIPLDVVDNQTEKLDTNITEVDAASVYTLPAGADFLMCYSVAEGYYSHRETVNGSWYIQDLCEMLGKYGSSLEFTELLTLVNRKVSQRRVDFCKDPSAIGKKQVPCFASMLTKKLHFFPKSN
B4: ICEγ (protein)
chain: MADKVLKEKRKLFIRSMGEAPQAVQDNPAMPTSSGSEGNVKLCSLEEAQRIWKQKSAEIYPIMDKSSRTRLALIICNEEFDSIPRRTGAEVDITGMTMLLQNLGYSVDVKKNLTASDMTTELEAFAHRPEHKTSDSTFLVFMSHGIREGICGKKHSEQVPDILQLNAIFNMLNTKNCPSLKDKPKVIIIQACRGDSPGVVWFKDSVGVSGNLSLPTTEEFEDDAIKKAHIEKDFIAFCSSTPDNVSWRHPTMGSVFIGRLIEHMQEYACSCDVEEIFRKVRFSFEQPDGRAQMPTTERVTLTRCFYLFPGH

Molecular target: human PARP, P09874
Sequence (P09874 whole entry, looked up): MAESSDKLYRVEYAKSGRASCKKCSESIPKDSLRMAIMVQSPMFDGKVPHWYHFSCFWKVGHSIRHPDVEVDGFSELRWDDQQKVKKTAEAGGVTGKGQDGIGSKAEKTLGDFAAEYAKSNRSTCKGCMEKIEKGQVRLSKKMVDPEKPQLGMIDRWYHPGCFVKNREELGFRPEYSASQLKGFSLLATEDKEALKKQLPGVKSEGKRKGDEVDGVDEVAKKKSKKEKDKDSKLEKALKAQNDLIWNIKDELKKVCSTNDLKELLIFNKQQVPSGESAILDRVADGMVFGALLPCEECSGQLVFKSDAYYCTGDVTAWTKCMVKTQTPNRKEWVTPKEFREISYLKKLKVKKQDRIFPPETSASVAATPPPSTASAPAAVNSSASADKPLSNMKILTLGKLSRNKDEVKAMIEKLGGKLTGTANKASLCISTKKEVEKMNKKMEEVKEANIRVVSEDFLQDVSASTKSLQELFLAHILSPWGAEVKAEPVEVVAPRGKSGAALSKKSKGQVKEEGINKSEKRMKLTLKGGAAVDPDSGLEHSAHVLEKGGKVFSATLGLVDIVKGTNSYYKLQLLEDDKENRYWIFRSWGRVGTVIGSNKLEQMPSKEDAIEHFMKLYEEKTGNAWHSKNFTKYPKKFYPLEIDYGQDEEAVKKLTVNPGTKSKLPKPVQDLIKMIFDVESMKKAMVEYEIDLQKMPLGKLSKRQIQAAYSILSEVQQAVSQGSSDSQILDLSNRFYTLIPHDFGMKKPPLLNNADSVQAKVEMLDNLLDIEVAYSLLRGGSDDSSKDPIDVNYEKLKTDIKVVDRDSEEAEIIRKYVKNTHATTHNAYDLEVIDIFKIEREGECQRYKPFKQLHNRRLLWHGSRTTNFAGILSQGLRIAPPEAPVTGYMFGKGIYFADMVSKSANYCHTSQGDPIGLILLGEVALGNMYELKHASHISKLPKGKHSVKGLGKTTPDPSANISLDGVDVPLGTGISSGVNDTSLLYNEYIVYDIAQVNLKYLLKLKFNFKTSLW

| Protein | cleavage of PARP in vitro, Western blot |
| --- | --- |
| B1 | Mch2α also cleaved PAR: to generate a major product of ˜83 kDa and a minor product of ˜57 kDa similar to that obtained with CPP32 |
| B2 | CPP32 cleaved PARP to generate a major band of ˜90 kDa and a minor band of 57 kDa |
| B3 | PARP was not cleaved by Mch2β or ICEγ |
| B4 | PARP was not cleaved by Mch2β or ICEγ |
